According to the supplement of paper PMC9732359:
± gives the uncertainty stated by the source.

Assay: protein stability index of a GFP-peptide fusion (yeast GPS) (PSI 1-4); higher = more stable; sorted into four equal gates, so the index is relative within each strain
Method in brief: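 The protein stability index of a peptide was calculated by multiplying its read frequency in each gate by that gate's number and adding the products. The peptides were tiled 17-residue stretches of yeast proteins, fused downstream of GFP on a Cherry-expressing plasmid and carried in yeast as a pooled library. Mid-log cultures in leucine-free medium were sorted into four equal gates by GFP/Cherry ratio, and each gate's plasmids were PCR-amplified and Illumina-sequenced.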

Sequence: EWDLYPQGFSSVERGRK [REC8]
- protein stability index (doa10∆): 3.41 ± 0.13
- protein stability index (pdr5∆): 3.54 ± 0.14
- protein stability index (san1∆): 3.44 ± 0.086
- protein stability index (ubr1∆): 3.48 ± 0.12

Sequence: QIYGFEGLNQRNQVQTE [YGR119C/NUP57]
- protein stability index (doa10∆): 3.16 ± 0.17
- protein stability index (pdr5∆): 2.94 ± 0.22
- protein stability index (san1∆): 3.08 ± 0.13
- protein stability index (ubr1∆): 3.39 ± 0.18

Sequence: IFALCIYNSTDSNSEIL [YML103C/NUP188]
- protein stability index (doa10∆): 1.39 ± 0.17
- protein stability index (pdr5∆): 2.19 ± 0.075
- protein stability index (san1∆): 1.87 ± 0.14
- protein stability index (ubr1∆): 1.95 ± 0.086

Sequence: SVQLPDMAKLKKMMNTS [SWI3]
- protein stability index (doa10∆): 2.14 ± 0.082
- protein stability index (pdr5∆): 1.82 ± 0.092
- protein stability index (san1∆): 1.91 ± 0.11
- protein stability index (ubr1∆): 1.94 ± 0.082

Sequence: YVDTATAKRKSRKRKPK [IRR1]
- protein stability index (doa10∆): 3.17 ± 0.1
- protein stability index (pdr5∆): 3.32 ± 0.1
- protein stability index (san1∆): 3.14 ± 0.16
- protein stability index (ubr1∆): 3.12 ± 0.066

Sequence: WTIPHKKWNDLKNKNFK [SIR2]
- protein stability index (doa10∆): 3.22 ± 0.14
- protein stability index (pdr5∆): 3.38 ± 0.13
- protein stability index (san1∆): 3.29 ± 0.11
- protein stability index (ubr1∆): 3.23 ± 0.073

Sequence: IYEVDITVHAPLLPIVE [SNU114]
- protein stability index (doa10∆): 2.32 ± 0.056
- protein stability index (pdr5∆): 2.29 ± 0.056
- protein stability index (san1∆): 2.19 ± 0.088
- protein stability index (ubr1∆): 2.52 ± 0.043

Sequence: LRDYTTVPRIVQLLSKS [RPN2]
- protein stability index (doa10∆): 1.62 ± 0.046
- protein stability index (pdr5∆): 1.98 ± 0.053
- protein stability index (san1∆): 2.26 ± 0.1
- protein stability index (ubr1∆): 1.73 ± 0.045

Sequence: MERLQRLMMNSKVGSAD [RPN11]
- protein stability index (doa10∆): 3.28 ± 0.15
- protein stability index (pdr5∆): 2.98 ± 0.17
- protein stability index (san1∆): 3.42 ± 0.097
- protein stability index (ubr1∆): 3.22 ± 0.12

Sequence: FDERIKFANQLHDEYLV [RPN3]
- protein stability index (doa10∆): 1.65 ± 0.092
- protein stability index (pdr5∆): 2.02 ± 0.12
- protein stability index (san1∆): 1.45 ± 0.14
- protein stability index (ubr1∆): 1.36 ± 0.076

Sequence: IYEKLKNYLKNYILNFK [CDC53]
- protein stability index (doa10∆): 2.44 ± 0.063
- protein stability index (pdr5∆): 1.32 ± 0.055
- protein stability index (san1∆): 1.17 ± 0.13
- protein stability index (ubr1∆): 1.14 ± 0.061

Sequence: MAKFLKAGKVAVVVRGR [RPL27A]
- protein stability index (doa10∆): 1.53 ± 0.093
- protein stability index (pdr5∆): 1.67 ± 0.057
- protein stability index (san1∆): 1.57 ± 0.14
- protein stability index (ubr1∆): 1.54 ± 0.092

Sequence: SLGFLQQSNKLHCCIQL [RPN3]
- protein stability index (doa10∆): 2.39 ± 0.06
- protein stability index (pdr5∆): 2.47 ± 0.085
- protein stability index (san1∆): 1.86 ± 0.12
- protein stability index (ubr1∆): 2.14 ± 0.058

Sequence: NIVSDAGANDTSNNETN [GRR1]
- protein stability index (doa10∆): 2.79 ± 0.051
- protein stability index (pdr5∆): 2.37 ± 0.2
- protein stability index (san1∆): 1.82 ± 0.15
- protein stability index (ubr1∆): 2.71 ± 0.099

Sequence: KGRAYKRLLYTRRFVNV [RPS30A]
- protein stability index (doa10∆): 2.38 ± 0.058
- protein stability index (pdr5∆): 2.12 ± 0.064
- protein stability index (san1∆): 2.81 ± 0.069
- protein stability index (ubr1∆): 2.76 ± 0.039

Sequence: LARGLRESTKALTRGEA [RPS12]
- protein stability index (doa10∆): 3.28 ± 0.14
- protein stability index (pdr5∆): 3.65 ± 0.12
- protein stability index (san1∆): 2.94 ± 0.24
- protein stability index (ubr1∆): 3.37 ± 0.044

Sequence: AILKLLENMPHPWEQAK [PRP8]
- protein stability index (doa10∆): 2.76 ± 0.12
- protein stability index (pdr5∆): 2.05 ± 0.088
- protein stability index (san1∆): 1.93 ± 0.13
- protein stability index (ubr1∆): 2.16 ± 0.057

Sequence: TKYSAKYAQDGAGIERE [RPL3]
- protein stability index (doa10∆): 3.04 ± 0.15
- protein stability index (pdr5∆): 3.48 ± 0.22
- protein stability index (san1∆): 3.24 ± 0.27
- protein stability index (ubr1∆): 3.19 ± 0.15

Sequence: DPKTSLRIVKPTVSLTI [RPC82]
- protein stability index (doa10∆): 2.3 ± 0.095
- protein stability index (pdr5∆): 2.3 ± 0.084
- protein stability index (san1∆): 2.56 ± 0.14
- protein stability index (ubr1∆): 3.34 ± 0.079

Sequence: GPIKTPVGACATSVESV [FAS2]
- protein stability index (doa10∆): 1.39 ± 0.073
- protein stability index (pdr5∆): 2.13 ± 0.12
- protein stability index (san1∆): 2.15 ± 0.11
- protein stability index (ubr1∆): 2.22 ± 0.077

Sequence: LAPTQLSAEYLVILKPD [SIN4]
- protein stability index (doa10∆): 2.31 ± 0.11
- protein stability index (pdr5∆): 2.74 ± 0.13
- protein stability index (san1∆): 2.38 ± 0.12
- protein stability index (ubr1∆): 2.38 ± 0.074

Sequence: LATGPNLTSEIEDLRAD [YOR098C/NUP1]
- protein stability index (doa10∆): 3.42 ± 0.11
- protein stability index (pdr5∆): 3.25 ± 0.11
- protein stability index (san1∆): 3.12 ± 0.06
- protein stability index (ubr1∆): 3.25 ± 0.082

Sequence: QKVQGESHIDSRNNTLN [SIR4]
- protein stability index (doa10∆): 3.02 ± 0.057
- protein stability index (pdr5∆): 3.1 ± 0.05
- protein stability index (san1∆): 3.08 ± 0.057
- protein stability index (ubr1∆): 3.01 ± 0.043

Sequence: LPRELPKLLDALNKISK [SNU114]
- protein stability index (doa10∆): 2.65 ± 0.072
- protein stability index (pdr5∆): 2.74 ± 0.083
- protein stability index (san1∆): 2.84 ± 0.077
- protein stability index (ubr1∆): 2.88 ± 0.062

Sequence: MSAPEAQQQKRGGFGGR [RPS2]
- protein stability index (pdr5∆): 3.25 ± 0.13
- protein stability index (san1∆): 3.28 ± 0.1
- protein stability index (ubr1∆): 3.33 ± 0.17

Sequence: LSALFTISSKPDILATD [YCS4]
- protein stability index (doa10∆): 2.32 ± 0.14
- protein stability index (pdr5∆): 2.78 ± 0.14
- protein stability index (san1∆): 2.72 ± 0.088
- protein stability index (ubr1∆): 2.98 ± 0.11
